Assay results as given in US11820827B2, “Methods of treating myelodysplastic syndrome and acute myeloid leukemia with nonfucosylated anti-CD70 antibodies” (Seagen Inc., priority 2019, dated 2023).

Key:
[1] = system: MOLM-13 CD70+ AML cell line; assay: ADCC assay with NK effector cells, MOLM-13; format: cell-based, human; settings: effector-to-target ratio 10:1, 4 h
Method: (§1) ADCC activity was evaluated using two CD70+AML cell lines as an ADCC target (FIGS. 3A and 3B). The AML cell lines, MOLM-13 (FIG. 3A) and NOMO-1 (FIG. 3B), were labeled and mixed with titrations of test antibodies or isotype control. Effector cells were isolated from cryopreserved normal donor PBMC using the EasySep Human NK Cell Enrichment Kit (Stem Cell Technologies). Effector cells were added at an effector-to-target cell ratio of 10:1 with […]. After a 4-h incubation, the percent specific cell lysis was calculated.
(§2) AML cell lines were grown in appropriate growth medium while incubating at 37° C. in 5% CO2. Suspended cells were counted using ViCell XR cell counter. The required volume of cells was mixed with fresh growth medium and plated at seeding densities of 0.5 M/mL.
(§3) The following protocol was used to assess ADCC activity: • 1. Two vials of huPBMCs were thawed in the 37° C. waterbath and resuspended in 1% FBS-RPMI media. Cells were spun down and then NK cells were isolated using the EasySep human NK cell enrichment kit following the manufacturer's protocol. • 2. […] Absorbance per well was measured using the SpectraMax 190 plate reader at 490 nm and the acquired values were converted to text file and exported to Excel and into GraphPad Prism for further data analysis. • 9. […]

[2] = system: Raji NHL Burkitt Lymphoma model; assay: Survival in the Raji NHL Burkitt Lymphoma mouse model; format: in vivo, SCID mice; settings: for median survival post implant: untreated 20 days
[3] = molecular target: T1, cynomolgus FcγRIIIa receptor (Macaca fascicularis, UniProt Q8SPW2); assay: CHO-FcγRIIIa binding assay by flow cytometry (cynomolgus receptor); settings: compared with SGN-70
T1 construct: expressed in transfected cells; host or cells: CHO
Method: While BLI methodology is used to assess receptor affinity by monitoring binding kinetics, it is primarily set to monitor monovalent binding. To add to BLI data sets, flow cytometry was also performed (FIGS. 2A and 2B).
The CHO-FcγRIIIa binding assay was conducted as follows: • 1. Thaw cells: Cells were thawed on 11 Jun. 2019, and cultured in culture medium for 1 week to recover from freeze-thaw.
• 2. Wash: 60 million cells were washed 1× in PBS in 50-mL tubes. Cells were counted again and resuspended at 2.2×10^6/mL. Then 0.1 mL was pipetted per well • 3. Make 10× dilutions of antibody: The 10× dilutions were prepared (3 mg/mL, 1 mg/mL, 0.3 mg/mL, 0.1 mg/mL, 0.03 mg/mL, 0.01 mg/mL, 0.003 mg/mL, 0.001 mg/mL, and 0.0003 mg/mL in the dilution plate).
• 4. Aspirate: Wash was aspirated in wells and 100 μL of the corresponding antibody dilutions was pipetted with a multichannel pipet. The corresponding concentrations were 300, 100, 30, 10, 3, 1, […] μg/mL in triplicate. The concentrations were decreased vertically down the 96-well round bottom plate. • 5. […] Analyze samples: Samples were analyzed by flow cytometry in high throughput sampler (HTS) mode on the Attune. Median fluorescence intensity (MFI) was graphed (geomean), and equilibrium dissociation constant (KD) for each was calculated in PRIZM

[4] = system: NOMO-1 CD70+ AML cell line; assay: ADCC assay with NK effector cells, NOMO-1; format: cell-based, human; settings: effector-to-target ratio 10:1, 4 h
Method: as §1, §2, §3

T1 sequence (Q8SPW2 17-254): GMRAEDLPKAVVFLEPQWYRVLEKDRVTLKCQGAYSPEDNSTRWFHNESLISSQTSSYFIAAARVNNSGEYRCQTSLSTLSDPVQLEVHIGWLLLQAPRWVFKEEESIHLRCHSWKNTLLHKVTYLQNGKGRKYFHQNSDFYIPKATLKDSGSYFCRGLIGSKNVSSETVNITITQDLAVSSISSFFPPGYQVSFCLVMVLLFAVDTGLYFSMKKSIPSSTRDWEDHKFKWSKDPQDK

B1: SEA-CD70: humanized, nonfucosylated monoclonal IgG1 antibody targeting CD70 (nonfucosylated h1F6) (antibody, chains of the INN, looked up, V domains shown)
VH: QVQLVQSGAEVKKPGASVKVSCKASGYTFTNYGMNWVRQAPGQGLKWMGWINTYTGEPTYADAFKGRVTMTRDTSISTAYMELSRLRSDDTAVYYCARDYGDYGMDYWGQGTTVTVSS
VL: DIVMTQSPDSLAVSLGERATINCRASKSVSTSGYSFMHWYQQKPGQPPKLLIYLASNLESGVPDRFSGSGSGTDFTLTISSLQAEDVAVYYCQHSREVPWTFGQGTKVEIK
modifications: nonfucosylated
lysis of target cells in ADCC assay [1]: induced lysis of two CD70 positive AML cell lines in a dose-dependent fashion
median survival post implant ([2]; 0.3 mg/kg Q4dx4 intraperitoneally): 36.5 days
median survival post implant ([2]; 1 mg/kg Q4dx4 intraperitoneally): 68 days
total number of animals in group ([2]; 1 mg/kg, day 0): 8
total number of animals in group ([2]; 1 mg/kg, day 23): 8
total number of animals in group ([2]; 1 mg/kg, day 30): 7
total number of animals in group ([2]; 1 mg/kg, day 54): 6
total number of animals in group ([2]; 1 mg/kg, day 61): 5
total number of animals in group ([2]; 1 mg/kg, day 75): 4
total number of animals in group ([2]; 1 mg/kg, day 90): 3
median survival post implant ([2]; 3 mg/kg Q4dx4 intraperitoneally): 69.5 days
total number of animals in group ([2]; 3 mg/kg, day 0): 8
total number of animals in group ([2]; 3 mg/kg, day 28): 8
total number of animals in group ([2]; 3 mg/kg, day 33): 7
total number of animals in group ([2]; 3 mg/kg, day 64): 5
total number of animals in group ([2]; 3 mg/kg, day 75): 4
total number of animals in group ([2]; 3 mg/kg, day 90): 3
survival compared to untreated mice ([2]; 0.3, 1 and 3 mg/kg): increased survival
total number of animals in group ([2]; .3 mg/kg, day 0): 8
total number of animals in group ([2]; .3 mg/kg, day 5): 8
total number of animals in group ([2]; .3 mg/kg, day 33): 7
total number of animals in group ([2]; .3 mg/kg, day 35): 6
total number of animals in group ([2]; .3 mg/kg, day 36): 5
total number of animals in group ([2]; .3 mg/kg, day 37): 4
total number of animals in group ([2]; .3 mg/kg, day 69): 3
total number of animals in group ([2]; .3 mg/kg, day 90): 2
binding affinity to cynomolgus FcγRIIIa on CHO cells [3]: bound with higher affinity than SGN-70
lysis of target cells in ADCC assay [4]: induced lysis of two CD70 positive AML cell lines in a dose-dependent fashion
